Measured values reported in doi:10.1101/2022.05.09.491158.

Target: purified recombinant I-A^b carrying a cleavable linker peptide (mouse)
Experiment: fluorescent peptide competition binding assay

## NP peptide Q2, P2 (Ser to Gln) (from UniProt P03466 311-325)
  reduction in peptide-MHC binding (against the unsubstituted peptide): 3.4
